Entries after “also recorded” stand apart in the source; their conditions may differ.

The subject of test [1] is bone marrow-derived monocytes (BMMs). The test is described as follows: TRAP analysis of osteoclastogenesis induced by RANKL variants in BMMs. The class given is cell-based, mouse. The following applies: RANKL-treated primary BMM; listed as mtRANKL. How it is done:
The RANKL-RANK binding sites are K180, D189, R190, H223, H224, which are conserved between humans and mice. We selected 4 mutant RANKLs to be purified. Their size corresponded to the wild type RANKL (39 kDa) (FIG. 2B). Tartrate-resistant acid […] (TRAP) activity was absent for all RANKLs even at 150 ng/mL (FIG. 2C, D).
4-week old male BALB/c mice were purchased from Orient Bio (Gwangju, Korea) and kept in an animal facility approved by the Chosun University Animal Management Committee (IACUC2017-A0002). After obtaining bone marrow cells from mice, bone marrow mononuclear cells were seeded into 96-well plates (1 Y 10^4 cells/well), and in the absence or presence of various concentrations of compounds, incubated with M-CSF (100 ng/mL) overnight before stimulation with RANKL (50 ng/well). The medium was replaced every other days. 6 days later, the cells were fixed with 4% paraformaldehyde, permeated in 0.1% Triton X-100, and washed with PBS. Then, TRAP activity (Sigma-Aldrich, St. Louis, Mo., USA) staining was performed. TRAP-positive multinuclear cells containing 5 or more nuclei were counted as osteoclasts.
To evaluate the effect of mtRANKL on osteoclastogenesis, TRAP analysis was performed on RANKL-treated primary bone marrow-derived macrophages (BMM) by the method described in Reference Example 2, and the results are shown in FIGS. 4B and 4C.

Test [2] concerns BMMs. Briefly: Bone-resorption assay (Osteo Assay Surface plates). Format: cell-based, mouse. The settings on record: 6 days, mRANKL-MT3 150 ng/mL. As for the experimental part:
We used bone-resorption and F-actin ring formation assays to investigate osteoclast activity. To observe bone resorption in vitro, BMMs were cultured in Corning Osteo Assay Surface 96-well Multiple Well Plates (Sigma) with 30 ng/mL M-CSF and 75 ng/mL sRANKL (soluble RANKL; R&D Systems) or isolated RANKL for 6 days. Then, the plates were washed with pure water. To monitor actin ring formation, BMMs were grown on glass slides. After culture, the cells were fixed with 4% formalin, permeabilized with 0.5% Triton X100 in PBS for 5 min at room temperature, and incubated with 0.5 mg/mL TRITC-labelled phalloidin for 30 min. The cells were then rinsed with PBS. F-actin rings were visualized using a fluorescence ECLIPSE Ts2R microscope (Nikon, Tokyo, Japan).

The subject of test [3] is BALB/c mice. Briefly: Bone destruction by injected mtRANKL, micro-CT. Format: in vivo, mouse. The following applies: subcutaneous 1.0 mg/kg three times a week. As for the experimental part: The right femur of each mouse subjected to each experiment was incised and CT imaging was performed using a Quantum GX pCT imaging system (PerkinElmer, Hopkinton, Mass., USA) located at the Korea Basic Science Institute in Gwangju. As for the X-ray source, the field of view was set to 45 mm, 90 kV and […] (voxel size, 90 μm; scanning time, 14 minutes). CT imaging was performed using a Quantum GX 3D Viewer software. After scanning, image segmentation was performed in Analyze (AnalyzeDirect, Overland Park, Kans., USA). Briefly, the legs were segmented using semi-automatic and manual tools (e.g., object extractor, area expansion, and object separator) using volume editing tools. Then, a 3D rendering of the leg was created, and bone mineral density (BMD), bone volume (BV), bone volume percentage (%), and trabecular thickness were calculated using the ROI tools.
To investigate the bone-destructive effect of mtRANKL, 4-week-old male BALB/c mice (Orient Bio) were placed in a cage capable of accommodating up to 4 animals in a light-controlled environment ([…]) and provided with autoclaved water and both whole and powdered rodent diet (Purina, St. Louis, Mo., USA). Starting from 6 weeks of age, 9 mice were randomly divided into three groups, and each group was subcutaneously injected with wild-type RANKL (Amgen, Thousand Oaks, Calif., USA), mtRANKL purified in Reference Example 2, and saline three times a week (1.0 mg/kg). The trabecular bone in femoral neck was examined by Micro-CT analysis described in Reference Example 6.

The test system of test [4] is RANK and LGR4 signaling. Briefly: Western blots of RANK and LGR4 signaling pathway proteins, RANKL variants. The class given is cell-based, mouse. As for the experimental part:
Proteins were separated by SDS-PAGE and electropermeated into a nitrocellulose membrane (Bio-Rad). After blocking the membrane with 5% (weight/volume) skim milk in TBST [10 mM Tris (pH 7.5), 150 mM NaCl, 0.1% (vol/vol) Tween 20], each mouse serum for primary antibody in the blocking solution was examined. The membrane was washed three times with Tris buffered saline. […] peroxidase (HRP)-conjugated secondary antibody was diluted 1:5000 with TBST in 1% (wt/vol) skim milk powder. ECL_system (Amersham Pharmacia Biotech) was used as the membrane.
Primary antibodies: AKT (Cell Signaling Technology, 1:1000), phospho-AKT (Cell Signaling Technology, #9271S, 1:1000), p38 (Cell Signaling Technology, 9212S, 1:1000), phospho-p38 (Cell Signaling Technology, #9211S, 1:1000), ERK (Cell Signaling Technology, 9102S, 1:1000), phospho-ERK (Cell Signaling Technology, #9101S, 1:1000), JNK (Cell Signaling Technology, 9252S, 1:1000), phosphoJNK (Cell Signaling Technology, #9251S, 1:1000), GSK-3β (Cell Signaling Technology, 9315S, 1:1000), phosphoGSK-3β (Cell Signaling Technology, #9336S, 1:1000), Src (Cell Signaling Technology, 2108S, 1:1000), phosphoSrc (Cell Signaling Technology, #2105S, 1:1000), NF-KB p65 (Cell Signaling Technology, #3034, 1:1000), phosphop65 (Cell Signaling Technology, #3031, 1:1000), RANK (Cell Signaling Technology, 4845S, 1:1000), Gaq (Cell Signaling Technology, 14373S, 1:1000), LGR4 (MyBioSource, MBS468030, 1:500), 20112360C-1, and GAPDH (Santa-Cruz Biotechnology, 1:2500).
To investigate the interaction of mRANKL variants and RANK, the co-immunoprecipitation (Co-IP) assays were carried out using mRANKL-WT/mRANKL-MT3 and RANK/LGR4 (FIG. 12A). In addition, wild-type RANKL induced MAPK, AKT, NF-κB p65, and GSK-3 phosphorylation, which is involved in LGR4 signaling (FIG. 12B).
A general note: In western blotting, separated proteins are transferred to a membrane and probed.

B1: mRANKL-MT3: mouse RANKL mutant: K180R, D189I, R190K, H223F, H224Y; nucleic acid SEQ ID NO: 3 (protein, UniProt O35235 158-316, looked up, variant K180R D189I R190K H223F H224Y)
chain: KPEAQPFAHLTINAASIPSGSHRVTLSSWYHIKGWAKISNMTLSNGKLRVNQDGFYYLYANICFRFYETSGSVPTDYLQLMVYVVKTSIKIPSSHNLMKGGSTKNWSGNSEFHFYSINVGGFFKLRAGEEISIQVSNPSLLDPDQDATYFGAFKVQDID
B1: the “number of TRAP-positive multinuclear osteoclasts / osteoclast differentiation” value in test [1] is “did not induce osteoclast differentiation; also recorded: led to a reduction of TRAP-positive cells”. In addition, the resorption pits result in test [2] is on record as “no resorption pits”. Further, the “trabecular bone by Micro-CT (osteoporosis)” value in test [3] is reported as “no significant change was observed”. For the same molecule, in test [4] (BMMs, Western blot), the GSK-3 phosphorylation result is “induced”; the “MAPK, AKT, and NF-κB p65 phosphorylation” value is reported as “lower”. For the same molecule, the src phosphorylation result in test [4] (mRANKL-MT3-induced BMMs vs mRANKL-WT induced BMMs) is listed as “significantly lower”.

The record behind these values is patent US20210403586A1, “MUTANT OF RANKL AND PHARMACEUTICAL COMPOSITION COMPRISING SAME FOR PREVENTING OR TREATING OSTEOPOROSIS” (INDUSTRY-ACADEMIC COOPERATION FOUNDATION CHOSUN UNIVERSITY, priority 2018, published 2021).
